Our source for the Kd values is article PMC5636753, “Structural basis for DAXX interaction with ATRX” (Protein & Cell, 2017).

The chains are these.
B1: ATRX_(1,253–1,326) [not stated] / DAXX helical bundle (DHB) domain, DAXX_(55–144) [not stated] (parent complex)
chain 1: SVPVTVDDDDDDNDPENRIAKKMLLEEIKANLSSDEDGSSDDEPEEGKKRTGKQNEENPGDEEAKNQVNSESDS
chain 2: GKKCYKLENEKLFEEFLELCKMQTADHPEVVPFLYNRQQRAHSLFLASAEFCNILSRVLSRARSRPAKLYVYINELCTVLKAHSAKKKLN
B2: DAXX-binding motif of ATRX, ATRX_(1,260–1,289) [not stated] / DAXX helical bundle (DHB) domain, DAXX_(55–144) [not stated] (parent complex)
chain 1: DDDDDNDPENRIAKKMLLEEIKANLSSDED
chain 2: B1 chain 2

The variants in one assay derive from B1. Briefly: ITC.
Consider chain 1 SVPVTVDDDDDDNDPENRIRKKMLLEEIKANLSSDEDGSSDDEPEEGKKRTGKQNEENPGDEEAKNQVNSESDS, for which the Kd is 1.04 µM. Consider chain 1 SVPVTVDDDDDDNDPENRIAKKMALEEAKANLSSDEDGSSDDEPEEGKKRTGKQNEENPGDEEAKNQVNSESDS, for which the equilibrium dissociation constant (Kd) was found to be 12 µM. Same read-out and setting: then chain 1 SVPVTVDDDDDDNDPENRIAKKMLLEEAKANLSSDEDGSSDDEPEEGKKRTGKQNEENPGDEEAKNQVNSESDS, with 0.4 µM. The same measure, in the same setting: then chain 1 SVPVTVDDDDDDNDPENRIAKKMLLEEQKANLSSDEDGSSDDEPEEGKKRTGKQNEENPGDEEAKNQVNSESDS, with 7.35 µM; and chain 1 SVPVTVDDDDDDNDPENRIAKKMLLEERKANLSSDEDGSSDDEPEEGKKRTGKQNEENPGDEEAKNQVNSESDS, with 34.8 µM; and chain 1 SVPVTVDDDDDDNDPENRIAKKMQLEEIKANLSSDEDGSSDDEPEEGKKRTGKQNEENPGDEEAKNQVNSESDS, with 43.3 µM. Still for that read-out and setting: the value for chain 1 SVPVTVDDDDDDNDPENRIAKKMRLEEIKANLSSDEDGSSDDEPEEGKKRTGKQNEENPGDEEAKNQVNSESDS was 73.5 µM. Regarding chain 1 SVPVTVDDDDDDNDPENRIAKKMALEEIKANLSSDEDGSSDDEPEEGKKRTGKQNEENPGDEEAKNQVNSESDS, the Kd is 8.33 µM. On the same count and under the same terms, then chain 1 SVPVTVDDDDDDNDPENRIAKKMLREEIKANLSSDEDGSSDDEPEEGKKRTGKQNEENPGDEEAKNQVNSESDS, with 0.97 µM.

In a further assay the parent is B2. The assay is described as follows: ITC.
Take chain 1 DDDDDNAPANRIAKKMLLEEIKANLSSDED: the dissociation constant Kd was determined as 1.75 µM.

Turning to chain 1 AAAAANDPENRIAKKMLLEEIKANLSSDED, the Kd is 0.85 µM.
